The text below walks through data of paper PMC11104707.

Sequences and labels used below:
B1: N-terminal half of ubiquitin-fused talin head domain (N-Ub-THD), wild type [not stated] / integrin β3 transmembrane domain-tail fused to the C-terminal half of ubiquitin (C-Ub) [not stated] (parent)
chain 1: MVALSLKISIGNVVKTMQFEPSTMVYDACRMIRERIPEALAGPPNDFGLFLSDDDPKKGIWLEAGKALDYYMLRNGDTMEYRKKQRPLKIRMLDGTVKTIMVDDSKTVTDMLMTICARIGITNHDEYSLVRELMEEKKDEGTGTLRKDKTLLRDEKKMEKLKQKLHTDDELNWLDHGRTLREQGVEEHETLLLRRKFFYSDQNVDSRDPVQLNLLYVQARDDILNGSHPVSFDKACEFAGFQCQIQFGPHNEQKHKAGFLDLKDFLPKEYVKQKGERKIFQAHKNCGQMSEIEAKVRYVKLARSLKTYGVSFFLVKEKMKGKNKLVPRLLGITKECVMRVDEKTKEVIQEWSLTNIKRWAASPKSFTLDFGDYQDGYYSVQTTEGEQIAQLIAGYIDIILKKKKSKDHFGLEGDEESTMLEDSVSPKKSTVLQ
chain 2: ILVVLLSVMGAILLIGLAALLIWKLLITIHDRKEFAKFEEERARAKWDTANNPLYKEATSTFTNITYRGT

Variants of B1 are the subject of the assay. Briefly: mammalian two-hybrid (split-ubiquitin) assay, GFP expression read by flow cytometry. The settings on record: with integrin β3 transmembrane domain-tail fused to the C-terminal half of ubiquitin (C-Ub); CHO cells stably incorporated with 5xGAL4-UAS and the integrin β3 TMD-tail construct; Empty control 0.23 %, N-Ub-THD(ΔF3) 1.96 %; parent: 7.9. (In general: A flow cytometer gives signals particle by particle.)
On to chain 1 K322D, for which the response (% GFP-expressing cells) came to 2.28.
